Assay results: US20170355757A1 (Regeneron, published 2017)
Where a chain is given by its changes, count along the chain named. In names and notes the source's numbering stands.

T1: monkey C5-mmh (monkey, UniProt P01031 19-1676 (human entry), limits assumed)
T1 construct: Expressed with a C-terminal myc-myc-hexahistidine tag
T1 chain: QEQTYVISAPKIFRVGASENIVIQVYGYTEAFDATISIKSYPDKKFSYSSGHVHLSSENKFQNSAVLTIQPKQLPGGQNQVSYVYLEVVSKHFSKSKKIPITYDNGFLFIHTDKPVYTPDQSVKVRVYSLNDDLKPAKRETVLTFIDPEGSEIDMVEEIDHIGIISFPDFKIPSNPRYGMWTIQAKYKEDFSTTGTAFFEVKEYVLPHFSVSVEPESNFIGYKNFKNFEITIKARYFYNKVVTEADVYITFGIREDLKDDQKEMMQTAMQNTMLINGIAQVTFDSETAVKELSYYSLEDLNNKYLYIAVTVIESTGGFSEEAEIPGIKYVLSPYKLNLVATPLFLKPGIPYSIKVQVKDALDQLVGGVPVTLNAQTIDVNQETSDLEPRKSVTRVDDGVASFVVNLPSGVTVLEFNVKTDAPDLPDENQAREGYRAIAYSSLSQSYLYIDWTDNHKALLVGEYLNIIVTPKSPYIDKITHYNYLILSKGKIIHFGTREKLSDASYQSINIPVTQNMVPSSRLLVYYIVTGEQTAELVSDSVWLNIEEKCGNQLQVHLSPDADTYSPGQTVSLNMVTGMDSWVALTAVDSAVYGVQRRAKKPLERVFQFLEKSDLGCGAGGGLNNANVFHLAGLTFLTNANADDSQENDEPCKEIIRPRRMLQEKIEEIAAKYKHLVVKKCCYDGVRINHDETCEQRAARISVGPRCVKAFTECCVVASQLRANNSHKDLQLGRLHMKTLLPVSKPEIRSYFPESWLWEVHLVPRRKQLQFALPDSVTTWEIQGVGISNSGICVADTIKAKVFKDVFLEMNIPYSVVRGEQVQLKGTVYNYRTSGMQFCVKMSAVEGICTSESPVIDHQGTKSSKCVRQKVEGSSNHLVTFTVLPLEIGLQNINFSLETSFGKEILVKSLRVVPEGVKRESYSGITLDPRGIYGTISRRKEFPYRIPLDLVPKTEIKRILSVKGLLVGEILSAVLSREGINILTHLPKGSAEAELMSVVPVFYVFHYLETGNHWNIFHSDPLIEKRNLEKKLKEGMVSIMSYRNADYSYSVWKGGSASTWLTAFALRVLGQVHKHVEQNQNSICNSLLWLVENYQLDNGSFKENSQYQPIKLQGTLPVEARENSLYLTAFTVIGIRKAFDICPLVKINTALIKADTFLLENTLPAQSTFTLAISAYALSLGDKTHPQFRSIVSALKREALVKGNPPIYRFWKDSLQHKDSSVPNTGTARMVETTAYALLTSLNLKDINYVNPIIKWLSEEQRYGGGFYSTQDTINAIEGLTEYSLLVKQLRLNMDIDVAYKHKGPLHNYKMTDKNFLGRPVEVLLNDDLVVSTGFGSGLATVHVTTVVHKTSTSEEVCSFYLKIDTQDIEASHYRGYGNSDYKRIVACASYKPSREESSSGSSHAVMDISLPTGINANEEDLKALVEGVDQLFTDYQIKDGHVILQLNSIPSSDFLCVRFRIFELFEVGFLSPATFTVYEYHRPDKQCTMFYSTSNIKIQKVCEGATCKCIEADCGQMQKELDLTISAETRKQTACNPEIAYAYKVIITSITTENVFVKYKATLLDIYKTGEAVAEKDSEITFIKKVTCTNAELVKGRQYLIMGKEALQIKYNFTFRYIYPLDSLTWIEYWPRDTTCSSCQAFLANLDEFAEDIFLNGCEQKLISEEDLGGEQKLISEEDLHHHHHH

B1: H4H12171P (antibody, human IgG4, V domains shown)
VH: EVQLVESGGGVVRPGGSLRLSCAASGFTFDEYGMTWVRQVPGKGLEWVSGITWNGGFTDYTDSVKGRFTSSRDNAKNSLYLQMNSLRAEDTALYYCARDGYSSSWGAYDIWGQGTMVTVSS
VL: DIQMTQSPSSLSASVGDRVTITCRASQSISTYLNWYQQKPGKAPKLLIYAASSLQSGVPLRFSGSGSGTDFTLTISSLQPEDFASYFCQQSYSTPYTFGQGTKLEIK
B2: H4H12166P4 (antibody, human IgG4, V domains shown)
VH: QVQLQESGPGLVKPSETLSLTCTVSGDSVSSSYWTWIRQPPGKGLEWIGYIYYSGSSNYNPSLKSRATISVDTSKNQFSLKLSSVTAADTAVYYCAREGNVDTTMIFDYWGQGTLVTVSS
VL: AIQMTQSPSSLSASVGDRVTITCRASQGIRNDLGWYQQKPGKAPKLLIYAASSLQSGVPSRFAGRGSGTDFTLTISSLQPEDFATYYCLQDFNYPWHFGQGTKVEIK
notes: human IgG4 Fc with S108P hinge mutation
B3: H4H12166P8 (antibody, human IgG4, V domains shown)
VH: B2 VH with T103H
VL: B2 VL with L89H, H97T
notes: as for B2
B4: H4H12166P10 (antibody, human IgG4, V domains shown)
VH: B2 VH with F107H
VL: B2 VL
notes: as for B2
B5: H4H12166P5 (antibody, human IgG4, V domains shown)
VH: B2 VH with F107H
VL: B2 VL with H97T
notes: as for B2
B6: H4H12166P9 (antibody, human IgG4, V domains shown)
VH: B2 VH with T103H
VL: B2 VL
notes: as for B2
B7: H4H12166P6 (antibody, human IgG4, V domains shown)
VH: B2 VH with T103H
VL: B2 VL with H97T
notes: as for B2
B8: H4H12166P7 (antibody, human IgG4, V domains shown)
VH: B2 VH with G99H
VL: B2 VL
notes: as for B2
B9: H4H11683N (antibody, human IgG4, V domains shown)
VH: QVQLVESGGGVVQPGRSLRLSCVASGFTFSSYGIHWVRQAPGKGLEWVAVIWDDGNNINYSDSVKGRFIISRDNSRKTVYLQMNSLRGEDTAVYYCARDAPIAPVPDYWGQGTLVTVSS
VL: DIQMTQSPSTLSASVGDRVTITCRASQSISSWLAWYQQKPGKAPKLLIYKASSLDTGVPSRFSGSGSGTEFTLTISSLQPDDFATYYCQQYNTYSYTFGLGTKLEIK
notes: also called H2M11683N

Biological target: T2, Human C5 (human, UniProt P01031 19-1676)
T2 construct: The natural protein has a beta and an alpha chain; also called complement factor 5; complement component 5
Test: SPR, mAb captured by anti-hFc, 25C
Description: (§1) Equilibrium dissociation constants (KD values) for C5 binding to purified anti-C5 antibodies were determined using a real-time surface plasmon resonance biosensor assay on a Biacore T200 instrument. The Biacore sensor surface was derivatized by amine coupling with a monoclonal mouse anti-human Fc antibody (GE Healthcare, # BR-1008-39) to capture anti-C5 antibodies expressed with human Fc constant regions. Biacore binding studies were conducted in HBST running buffer (0.01M HEPES pH 7.4, 0.15M NaCl, 3 mM EDTA, 0.05% v/v Surfactant P20).
(§2) Human C5 was obtained from a commercial source (EMD). Other C5 reagents were expressed with a C-terminal myc-myc-hexahistidine tag (subsequently referred to as C5-mmh). […] Association of all the C5 reagents to each of the captured monoclonal antibodies was monitored for 3 minutes and their dissociation in HBST running buffer was monitored for 8 minutes. All the binding kinetics experiments were performed at either 25° C. or 37° C. Kinetic association (kₐ) and dissociation (kd) rate constants were determined by fitting the real-time sensorgrams to a 1:1 binding model using Scrubber 2.0c curve fitting software. Binding dissociation equilibrium constants (KD) and dissociative half-lives (t %) were calculated from the kinetic rate constants as: KD (M)=kd/kₐ and t_{1/2} (min)=In2/(60×kd)

Row | Binder | 100 nM Human C5 Bound (RU) | Kd | koff | kon | t½
1 | B1 | 64 RU | 0.549 nM | 8.16e-05 s⁻¹ | 149000 M⁻¹ s⁻¹ | 142 min
2 | B2 | 92 RU | 0.395 nM | 0.000176 s⁻¹ | 446000 M⁻¹ s⁻¹ | 66 min
3 | B3 | 91 RU | 1.42 nM | 0.000686 s⁻¹ | 484000 M⁻¹ s⁻¹ | 17 min
4 | B4 | 69 RU | 8.38 nM | 0.00132 s⁻¹ | 157000 M⁻¹ s⁻¹ | 9 min
5 | B5 | 110 RU | 1.15 nM | 0.000328 s⁻¹ | 285000 M⁻¹ s⁻¹ | 35 min
6 | B6 | 100 RU | 0.794 nM | 0.000264 s⁻¹ | 332000 M⁻¹ s⁻¹ | 44 min
7 | B7 | 131 RU | 0.375 nM | 0.000184 s⁻¹ | 489000 M⁻¹ s⁻¹ | 63 min
8 | B8 | 92 RU | 3.67 nM | 0.00101 s⁻¹ | 274000 M⁻¹ s⁻¹ | 11 min
9 | B9 | 439 RU | 0.123 nM | 5.14e-05 s⁻¹ | 417000 M⁻¹ s⁻¹ | 225 min

Biological target: T1, monkey C5-mmh
Test: SPR, mAb captured by anti-hFc, 25C
Description: as §1, §2

Row | Binder | 100 nM monkey C5-mmh Bound (RU) | Kd | koff | kon | t1/2
10 | B1 | 17 RU | 4.92 nM | 0.000226 s⁻¹ | 46000 M⁻¹ s⁻¹ | 51 min
11 | B2 | 69 RU | 8.5 nM | 0.00178 s⁻¹ | 210000 M⁻¹ s⁻¹ | 6 min
12 | B3 | 47 RU | 21.6 nM | 0.00499 s⁻¹ | 231000 M⁻¹ s⁻¹ | 2 min
13 | B4 | 15 RU | 64.4 nM | 0.00616 s⁻¹ | 95600 M⁻¹ s⁻¹ | 2 min
14 | B5 | 56 RU | 24 nM | 0.00346 s⁻¹ | 144000 M⁻¹ s⁻¹ | 3 min
15 | B6 | 55 RU | 18.7 nM | 0.00318 s⁻¹ | 170000 M⁻¹ s⁻¹ | 4 min
16 | B7 | 94 RU | 11.1 nM | 0.00266 s⁻¹ | 239000 M⁻¹ s⁻¹ | 4 min
17 | B8 | 36 RU | 46.5 nM | 0.00633 s⁻¹ | 136000 M⁻¹ s⁻¹ | 2 min
18 | B9 | 403 RU | 0.64 nM | 0.000247 s⁻¹ | 386000 M⁻¹ s⁻¹ | 47 min

Biological target: T2, Human C5
Test: SPR, mAb captured by anti-hFc, 37C
Description: as §1, §2

Row | Binder | 100 nM Human C5 Bound (RU) | Kd | koff | kon | t½
19 | B1 | 58 RU | 6.27 nM | 0.000762 s⁻¹ | 122000 M⁻¹ s⁻¹ | 15 min
20 | B2 | 108 RU | 0.93 nM | 0.000469 s⁻¹ | 505000 M⁻¹ s⁻¹ | 25 min
21 | B3 | 98 RU | 3.1 nM | 0.00209 s⁻¹ | 675000 M⁻¹ s⁻¹ | 6 min
22 | B4 | 82 RU | 13.8 nM | 0.00314 s⁻¹ | 227000 M⁻¹ s⁻¹ | 4 min
23 | B5 | 129 RU | 2.77 nM | 0.00122 s⁻¹ | 440000 M⁻¹ s⁻¹ | 9 min
24 | B6 | 122 RU | 1.7 nM | 0.000639 s⁻¹ | 375000 M⁻¹ s⁻¹ | 18 min
25 | B7 | 157 RU | 0.875 nM | 0.000474 s⁻¹ | 542000 M⁻¹ s⁻¹ | 24 min
26 | B8 | 105 RU | 7.39 nM | 0.00258 s⁻¹ | 349000 M⁻¹ s⁻¹ | 4 min
27 | B9 | 492 RU | 0.532 nM | 0.000241 s⁻¹ | 454000 M⁻¹ s⁻¹ | 48 min
